Source: patent US20160003844A1 (MOGAM BIOTHECHNOLOGY INSTITUTE, published 2016)
Positions count from the first letter of the chain named.

B1: HSA50 (other)
VH: EVQLVESGGGLVQPGGSLRLSCAASGFTFSSYAMGWVRQAPGKGPEVVSLISGSGGSTWYDDSVKGRFTISRDNSKNTLYLQMNSLRAEDTAVYYCASHQFTTTQWGQGTLVTVSS
notes: Human VH domain antibody (single heavy chain variable domain)
B2: HSA11 (other)
VH: B1 VH with Q100K, T102R, T103N, T104L, Q105K
notes: as for B1
B3: HSA9 (other)
VH: B1 VH with F101W, T102S, T103R, T104Q
notes: Human VH domain antibody (single heavy chain variable domain) selected from a CDR-engineered library; its FR2 matches the MG8-4 scaffold
B4: HER3#62 (other)
VH: B1 VH with Q100P, F101P, T102R, T103V, T104D, Q105T
notes: as for B1
B5: HER3#748 (other)
VH: B1 VH with S30Y, Y32L, A33M, H99R, Q100H, F101P, T102P, T103G, T104L, Q105M
notes: as for B1
B6: HER3#723 (other)
VH: B1 VH with S30Y, S31N, A33P, D90N, Q100P, F101V, T102S, T103L, T104L, Q105F
notes: Human VH domain antibody (single heavy chain variable domain), FR3 reads ...SLRAEN TAVYYC (N where the other clones have D)

What follows are binders tested against T1, human serum albumin (human, UniProt P02768 25-609) (assay: method not stated; 'Affinity (nM)').
T1 construct: also called HAS; HSA
T1 sequence (P02768 25-609 limits assumed): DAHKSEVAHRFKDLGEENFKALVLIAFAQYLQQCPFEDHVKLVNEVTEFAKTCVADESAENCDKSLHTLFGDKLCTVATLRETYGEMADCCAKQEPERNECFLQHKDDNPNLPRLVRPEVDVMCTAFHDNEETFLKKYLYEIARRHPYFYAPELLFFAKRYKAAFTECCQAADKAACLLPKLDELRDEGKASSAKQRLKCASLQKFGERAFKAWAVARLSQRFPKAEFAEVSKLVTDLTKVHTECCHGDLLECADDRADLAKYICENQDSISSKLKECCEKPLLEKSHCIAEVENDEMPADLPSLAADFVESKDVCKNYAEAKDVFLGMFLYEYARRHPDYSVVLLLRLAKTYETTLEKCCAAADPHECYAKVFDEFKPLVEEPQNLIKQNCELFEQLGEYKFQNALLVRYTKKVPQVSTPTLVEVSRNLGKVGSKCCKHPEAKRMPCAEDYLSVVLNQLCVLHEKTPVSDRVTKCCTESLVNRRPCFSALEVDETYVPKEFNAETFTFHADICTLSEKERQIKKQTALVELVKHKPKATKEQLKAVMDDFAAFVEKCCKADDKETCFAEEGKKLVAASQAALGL
For B1, the Kd was 7.8 nM. B2 was tested, and the Kd was 1.2 nM. With B3 the Kd was 1.7 nM.

These binders were tested against T2, Human Epidermal Growth Factor Receptor-3 (human, UniProt P21860 20-643, limits assumed) (assay: method not stated; 'Affinity (nM)').
T2 construct: also called HER3
T2 sequence (P21860 20-643 limits assumed): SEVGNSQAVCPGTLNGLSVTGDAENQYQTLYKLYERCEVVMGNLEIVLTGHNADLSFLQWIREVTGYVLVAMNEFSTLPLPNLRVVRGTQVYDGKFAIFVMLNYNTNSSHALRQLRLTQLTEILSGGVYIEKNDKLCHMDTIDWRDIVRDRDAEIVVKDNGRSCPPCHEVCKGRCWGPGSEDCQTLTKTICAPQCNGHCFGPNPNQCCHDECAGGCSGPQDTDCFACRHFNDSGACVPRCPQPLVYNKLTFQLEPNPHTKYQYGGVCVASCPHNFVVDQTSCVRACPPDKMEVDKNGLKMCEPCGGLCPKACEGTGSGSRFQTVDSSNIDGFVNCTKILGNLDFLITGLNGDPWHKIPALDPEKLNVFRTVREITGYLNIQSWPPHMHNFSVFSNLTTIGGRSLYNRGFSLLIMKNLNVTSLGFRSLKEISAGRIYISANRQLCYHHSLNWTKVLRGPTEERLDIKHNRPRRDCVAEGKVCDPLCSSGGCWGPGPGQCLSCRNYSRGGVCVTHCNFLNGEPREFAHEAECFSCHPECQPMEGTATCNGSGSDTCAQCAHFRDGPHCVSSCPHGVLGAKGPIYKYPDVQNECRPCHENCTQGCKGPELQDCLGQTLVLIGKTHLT
Work on B4 yielded a Kd of 1.8 nM. In the case of B5, the Kd is reported as 20 nM. With B6 the Kd was 27.4 nM.
